Source: patent publication US20230091175A1 (SYSMEX, published 2023)
Where a chain is given by its changes, count along the chain named.

What was measured:
[1] = biological target: T1, animal free recombinant human IL-4 (AF-200-04: Peprotech, Inc.) (human, UniProt P05112 25-153); test: ELISA, IL-4 coated on plate, HRP anti-human IgG detection
T1 construct: Bought reagent
T1 sequence (looked up): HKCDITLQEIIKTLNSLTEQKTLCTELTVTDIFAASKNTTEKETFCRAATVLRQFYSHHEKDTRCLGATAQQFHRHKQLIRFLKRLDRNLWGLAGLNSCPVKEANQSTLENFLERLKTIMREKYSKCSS
Method: (§1) Affinity of the original anti-IL-4 antibody and variants was measured by ELISA method. As an antigen, an animal free recombinant human IL-4 (AF-200-04: Peprotech, Inc.) was used. The IL-4 was diluted with 1% BSA/TBS to prepare an antigen solution (5 μg/mL). Each of the original anti-IL-4 antibody, R3 variant and R4 variant was diluted with 1% BSA/TBS to prepare an antibody solution (1000 ng/mL, 250 ng/mL, 62.5 ng/mL, 15.63 ng/mL, 3.91 ng/mL, 0.98 ng/mL, and 0.244 ng/mL). As a detection antibody, an HRP-labeled anti-human IgG antibody (Bethyl Laboratories) was used. The detection antibody was diluted with 1% BSA/TBS to prepare a detection antibody solution (100 ng/mL).
(§2) The antigen solution was dispensed at 50 μL per well into a 96 well plate for ELISA (Thermo Fisher Scientific), and the plate was incubated at 4° C. overnight. The plate was washed 3 times with 200 μL of a washing solution per well (0.05% Tween 20-containing TBS). A blocking solution (1% BSA-containing TBS) was dispensed at 250 μL per well, and the plate was incubated at 4° C. overnight. The blocking solution was removed, the […] solution was dispensed at 50 μL of antibody solution per well into the plate, and the plate was incubated at room temperature for 15 minutes. After washing the plate 3 times with a washing solution, the detection antibody solution was dispensed at 50 μL per well, and the plate was incubated at room temperature for 1 hour. After washing the plate 3 times with a washing solution, a substrate solution (Seracare) was dispensed at 100 μL per well into the plate, and the absorbance at 450 nm was measured with a plate reader SpectraMax 190 Microplate Reader (Molecular Devices, LLC.).

[2] = biological target: T1, animal free recombinant human IL-4 …; test: ELISA; affinity ratio with the original antibody as 1.0
Method: as §1, §2

B1: human anti-IL-4 antibody (PDB: 5FHX), original (unmodified) (antibody, human IgG1, kappa, V domains shown)
VH: AVQLQQSGPELVKPGASVKISCKASGYSFTSYWIHWIKQRPGQGLEWIGMIDPSDGETRLNQRFQGRATLTVDESTSTAYMQLRSPTSEDSAVYYCTRLKEYGNYDSFYFDVWGAGTLVTVSS
VL: DIQMTQSPASLSVSVGDTITLTCHASQNIDVWLSWFQQKPGNIPKLLIYKASNLHTGVPSRFSGSGSGTGFTLTISSLQPEDIATYYCQQAHSYPFTFGGGTKLEIKR
notes: IgG with full heavy and light chains; also called original anti-IL-4 antibody
EC50 [1]: 0.304 µg/mL
EC50 ratio [2]: 1

B2: R3 variant of anti-IL-4 antibody (antibody, human IgG1, kappa, V domains shown)
VH: B1 VH
VL: B1 VL with S63R, S65R, S67R
notes: IgG; light chain positions 63, 65, 67 (Chothia) changed to Arg
EC50 [1]: 0.18 µg/mL
EC50 ratio [2]: 1.7

B3: R4 variant of anti-IL-4 antibody (antibody, human IgG1, kappa, V domains shown)
VH: B1 VH
VL: B1 VL with S63R, S65R, S67R, G70R
notes: IgG; light chain positions 63, 65, 67, 70 (Chothia) changed to Arg
EC50 [1]: 0.176 µg/mL
EC50 ratio [2]: 1.7
